For experiment [1], the target named is T1, Ube2D3 (Homo sapiens, UniProt P61077).
T1 construct: 6xHis (C); made in house; host or cells: E. coli Rosetta 2 (DE3) pLacI
Description: E2~Ub thioester formation assay, Ube2D3. The class given is biochemical. The settings on record: immunoblot. How it is done: (§1) E2˜Ub thioester formation assays were performed at 25° C. using 0.25 μM E1, 3 μM E2, 12 μM Ub, and 50 mM HEPES, pH 8.0, initiated with addition of 1 mM Mg-ATP. When included, 30 μM AtMUB3 was pre-incubated for 15 min at 25° C. Reactions were terminated by the addition of non-reducing or reducing Laemmli buffer. Protein samples were visualized and analyzed as described, above, and quantified using Fuji Film Multi-Gauge software. Relative inhibition efficiency (RIE) was determined by comparing the inhibition efficiency of AtMUB3 mutants to wild type as follows; RIE=[1−(E2˜Ub with AtMUB3 mutant/E2)]/[1−(E2˜Ub with WT AtMUB3/E2)].
To test whether the differences between plant and animal LBLs influence their activity, the inventors compared them in reciprocal inhibition experiments. […] Taken together, MUB inhibition of E2Ub formation is conserved and broadly relevant to organisms that use the ubiquitylation system.
(A western blot detects proteins with antibodies after separation by electrophoresis.)

In the next experiment the target is T2, AtUBC10 (Arabidopsis thaliana, UniProt P35133).
T2 construct: 6xHis (N); made in house; host or cells: E. coli Rosetta 2 (DE3) pLacI
T2 sequence (P35133 whole entry): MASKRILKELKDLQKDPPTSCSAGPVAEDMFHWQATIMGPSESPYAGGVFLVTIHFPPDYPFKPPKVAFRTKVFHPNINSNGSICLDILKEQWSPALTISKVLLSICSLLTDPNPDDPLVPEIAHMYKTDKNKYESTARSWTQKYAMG
Description: E2~Ub thioester formation assay, AtUBC10. It is filed as biochemical. Particulars: group VI E2, AtMUB3 30 μM. The method, then: as §1
(§2) To assess whether MUB binding regulates E2 function, E2˜Ub thioester formation assays were performed on AtUBC8. […] AtUBC8-Ub peptide linkages, which could complicate the analysis, were observed by 10 minutes, so three minute reactions were used in subsequent assays. Ser22 on the so-called backside binding site (BBS) of AtUBC8 is distant from the active site Cys85, and was previously determined to interfere with MUB-induced E2 localization to the PM (Dowil et al., 2011). E2Ub formation on AtUBC8 Ser22Arg was unaffected by AtMUB3, supporting the requirement of a direct interaction for inhibition (FIG. 1C). Since MUBs interact specifically with Arabidopsis group VI E2s, two additional subfamily members, AtUBC10 and AtUBC28 were tested. […]

A further experiment has as its target T3, AtUBC8 Ser22Arg (Arabidopsis thaliana, UniProt P35131, S22R).
T3 construct: 6xHis (C); made in house; host or cells: E. coli Rosetta 2 (DE3) pLacI
Description: E2~Ub thioester formation assay, AtUBC8 Ser22Arg. The class given is biochemical. The settings on record: AtMUB3 30 μM, three minute reaction. How it is done: as §1, §2

The target in another experiment is T4, AtUBC28 (Arabidopsis thaliana, UniProt Q94F47).
T4 construct: 6xHis (N); made in house; host or cells: E. coli Rosetta 2 (DE3) pLacI
T4 sequence (Q94F47 whole entry): as the sequence (P35133 whole entry) above, with E42D, A46S, I78V, K131R, N132A counted along it
Description: E2~Ub thioester formation assay, AtUBC28. The class given is biochemical. Particulars: group VI E2, AtMUB3 30 μM. The method, then: as §1, §2

Experiment [2] has as its target T5, AtUBC8 (Arabidopsis thaliana, UniProt P35131).
T5 construct: 6xHis; made in house; host or cells: E. coli Rosetta 2 (DE3) pLacI
Description: Isothermal titration calorimetry. Particulars: ITC, 8 μM AtUBC8, 110 μM AtMUB3 titrant, 25 mM HEPES pH 7.5, 200 mM NaCl. The class given is binding. The method, then: FIG. 13. AtMUB binds AtUBC8 with submicromolar dissociation constant Kd as measured by isothermal titration calorimetry. Isothermal titration calorimetry (ITC) was performed on 8 μM AtUBC8 with 110 μM AtMUB3 as the titrant using a MicroCal iTC200 (GE). Proteins were purified as described for crystallization and dialyzed extensively against a buffer containing 25 mM HEPES, pH 7.5, 200 mM NaCl, 1 mM TCEP. Data was processed with MicroCal Origin 7 software, and normalized against the dialysis buffer's heat of dilution. This plot is representative of 3 independent experiments, which yielded similar results but were performed at different concentrations of NaCl.
In general terms: ITC needs no label: the signal is the heat of the interaction.

Experiment [3] concerns the target T5, AtUBC8. Description: GST pull-down assay with GST-AtUBC8. The class given is binding. Particulars: immunoblot. The method, then: (§3) GST-tagged AtUBC8 was induced as described above, and the soluble extract fraction was immobilized on GSH resin (Thermo Scientific) for 20 min, followed by three washes with sonication buffer. Equi-molar His-tagged AtMUB3, AtMUB3 mutants and Ub were incubated separately with AtUBC8 loaded GSH resin for 15 min, washed three times using sonication buffer, and boiled in Laemmli buffer. MUB recovery was determined by immunoblotting and chemiluminescent detection using Fujifilm LAS4000 imaging. For FLAG pull-down assay, His-tagged AtUBC8C85S—O-Ub was generated (Sakata et al., 2010). Flag-tagged AtMUB3 was immobilized on FLAG resin (Thermo Scientific) for 20 min, followed by three washes with sonication buffer. AtUBC8C85S—O-Ub protein or Ub were incubated separately with AtMUB3 loaded FLAG resin for 15 min, washed three times using sonication buffer, and boiled in Laemmli buffer.

The target of experiment [4] is T5, AtUBC8. Description: E2~Ub thioester formation assay (immunoblot), AtUBC8. The class given is biochemical. Particulars: for inhibition of AtUBC8~Ub thioester formation: MUB protein 30 μM pre-incubated 15 min, 3 μM E2, immunoblot. The method, then:
E2 Thioester Formation Assays.
as §1
Lap-Bar Peptide Inhibition Assay.
Lap-Bar custom peptide ([…] SEQ ID NO: 1, Sigma-Aldrich and Peptide 2.0 Inc.), three scrambled peptides ([…] SEQ ID NO: 4, […] SEQ ID NO: 49, […] SEQ ID NO: 50, Peptide 2.0 Inc.) and amino acid controls were dissolved in 50 mM Tris-HCl, pH 7.5, 300 mM NaCl, and 10% Glycerol.

The target in a further experiment is T6, AtUBC36 (Arabidopsis thaliana, UniProt Q9FZ48).
T6 construct: 6xHis (N); made in house; host or cells: E. coli Rosetta 2 (DE3) pLacI
T6 sequence (Q9FZ48 1-153): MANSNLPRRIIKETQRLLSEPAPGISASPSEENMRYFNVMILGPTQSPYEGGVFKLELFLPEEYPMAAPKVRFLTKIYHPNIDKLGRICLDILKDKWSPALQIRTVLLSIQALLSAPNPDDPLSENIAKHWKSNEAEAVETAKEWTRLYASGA
Description: E2~Ub thioester formation assay, AtUBC36. The settings on record: group XV E2, AtMUB3 30 μM. It is filed as biochemical. The method, then:
as §1, §2

Experiment [5] concerns the target T7, AtUBC8C85S with Ub linked to the active site through an oxyester bond (Arabidopsis thaliana, UniProt P35131, C85S).
T7 construct: His; made in house; host or cells: E. coli Rosetta 2 (DE3) pLacI
Description: FLAG pull-down assay with FLAG-AtMUB3. The class given is binding. Particulars: immunoblot. How it is done: as §3

For another experiment, the target named is T8, AtUBC4 (Arabidopsis thaliana, UniProt P42748).
T8 construct: 6xHis (N); made in house; host or cells: E. coli Rosetta 2 (DE3) pLacI
T8 sequence (P42748 1-187): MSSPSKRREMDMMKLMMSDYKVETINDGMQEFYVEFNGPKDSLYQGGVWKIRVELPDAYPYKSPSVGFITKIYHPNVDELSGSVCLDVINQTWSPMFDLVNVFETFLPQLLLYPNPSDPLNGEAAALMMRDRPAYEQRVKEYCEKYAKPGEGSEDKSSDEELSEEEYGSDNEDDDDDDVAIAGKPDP
Description: E2~Ub thioester formation assay, AtUBC4. Particulars: group IV E2, AtMUB3 30 μM. It is filed as biochemical. The method, then:
as §1, §2

Another experiment addresses T9, AtUBC8~Ub (Arabidopsis thaliana, UniProt P35131).
T9 construct: 6xHis; made in house; host or cells: E. coli Rosetta 2 (DE3) pLacI
Description: E2~Ub thioester discharge assay. It is filed as biochemical. Particulars: 30 μM MUB, 100 mM lysine. The method, then: FIG. 11. […] AtUBC8˜Ub discharging assay is exposed to AtMUB3. The quantification is presented in line graph, top panel (+/−SEM and n=3 for all data points), while the immunoblot (IB) of triple parallel experiments is shown in bottom panel.
AtUBC8 (3 μM) was charged by incubating with 0.25 μM E1, 50 mM HEPES, pH 8.0, 1 mM Mg-ATP and 12 μM K0Ub for 3 min. The E1 was inactivated for 90 seconds with 50×E1 stop buffer (BostonBiochem). Lysine (100 mM) was added to the reaction with or without 30 μM MUB to initiate Ub leaving from the E2 active site.

Experiment [6] addresses T1, Ube2D3. Description: HTRF-FRET E2 activation assay. The class given is biochemical. The method, then:
FIG. 12. Ube2D3 Activation. Using HTRF-FRET, Ube2D3 activation was monitored with indicated concentrations of HsMUB to establish an inhibition curve. The initial velocity was linear over the first 10 minutes and is represented as percent E2 activated, with 100% velocity taken in the absence of MUB and 0% in the absence of ATP. Plot represents three independent assays+s.e.m., fit to the one-site binding equation. An additional three assays fit to the Hill equation with coefficient n produced nearly identical results with n1.
HTRF-FRET E2 activation assays were conducted using reagents adapted from the E1/E2 Lite kit (LifeSensors, Malvern, Pa.). […] Assays were read kinetically using a BioTek Synergy 4 plate reader equipped with Excitation 340/30 nm, Emission1 495/10 nm, Emission2 520/25 nm bandpass filters, a 400 nm dichroic mirror, and a Xenon flash lamp set to read Terbium and Fluorescein emission with a 100 μs time delay and 200 μs data collection time. The corrected FRET ratio was calculated as described in the TR-FRET manual (Molecular Devices): [(Em520/Em490)−(P*Em490))/Em490]*10000, where P=Em520/Em490 with terbium only, a proportionality factor to correct for terbium donor contribution to acceptor emission. The linear slope of the first 10 minutes of the reaction was determined as the initial velocity. […]
Background: In TR-FRET formats the signal depends on donor and acceptor labels being close together.

No end group written: not given here.

Consider four molecules from patent publication US10829757B2, “MUB motif is an inhibitor of E2-ubiquitin thioester formation” (Saint Louis University, priority 2016, dated 2020).

T1 sequence (P61077 whole entry): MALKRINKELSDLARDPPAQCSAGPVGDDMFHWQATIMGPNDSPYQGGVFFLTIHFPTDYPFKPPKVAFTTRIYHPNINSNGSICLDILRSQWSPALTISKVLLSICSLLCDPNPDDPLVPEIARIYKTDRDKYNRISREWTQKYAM
T5 sequence (P35131 whole entry): as the sequence (P35133 whole entry) above, with S41A, A46S, K131R, N132A, S136A, S140N counted along it
T9 sequence (P35131 whole entry): as the sequence (P35133 whole entry) above, with S41A, A46S, K131R, N132A, S136A, S140N counted along it
T7 sequence (P35131 whole entry C85S): as the sequence (P35133 whole entry) above, with S41A, A46S, C85S, K131R, N132A, S136A, S140N counted along it
T3 sequence (P35131 whole entry S22R): as the sequence (P35133 whole entry) above, with S22R, S41A, A46S, K131R, N132A, S136A, S140N counted along it

In the case of “AtMUB3: Arabidopsis thaliana Membrane-anchored Ubiquitin-fold protein 3, recombinant, His-tagged (VGQCKTPFGDIAGGVIVMHVV; also: His tag; listed as Arabidopsis thaliana)”, in the experiment with Ube2D3 [1], the “inhibition of Ube2D3~Ub formation” value is listed as “does not inhibit”. The “inhibition of AtUBC10 activation” value with AtUBC10 is listed as “strongly inhibited”. Also, the “inhibition of E2~Ub formation on AtUBC8 Ser22Arg” value with AtUBC8 Ser22Arg is “unaffected”. Moreover, the “inhibition of AtUBC28 activation” value with AtUBC28 is listed as “strongly inhibited”. Moreover, the “dissociation constant Kd” value with AtUBC8 [2] is recorded as “submicromolar”. In the experiment with AtUBC8 [3], the “binding to GST-AtUBC8 in pull-down” value is listed as “efficient bait”. The “inhibition of AtUBC8~Ub thioester formation” value in the experiment with AtUBC8 [4] is “strongly reduced”. The “inhibition of AtUBC36 activation” value in the experiment with AtUBC36 is listed as “unaffected”. The “pull-down of AtUBC8C85S-O-Ub” value in [5] is on record as “can pull-down”. Further, in the experiment with AtUBC4, the “inhibition of AtUBC4 activation” value is recorded as “unaffected”. Besides, the results for the “Ub discharge from AtUBC8~Ub” value with AtUBC8~Ub and in the experiment with AtUBC8~Ub (listed as MUB) were “increase Ub discharging” and “slightly faster”, respectively.
Regarding “LKLPFGKT [minimal human LBL, human MUB Lap Bar Loop eight-residue peptide]”, the “inhibition of AtUBC8~Ub formation by peptides” value with AtUBC8 [4] (peptide 5 mM, 3 μM AtUBC8) was “potent inhibitory activity”.

B1: AtMUB3 F77A (protein, UniProt Q9SW27 1-115, looked up, variant F77A)
Membrane-anchored …: MPEEESIDIKFRLYDGSDIGPFRYSAASTVDFLKQRVVSDWPKGKTVVPKGINEVKLISSGKILENNKTVGQCKTPAGDIAGGVIVMHVVVQPSLAKSKTEKKVDKAPKAVICTC
Take B1: the “inhibition of AtUBC8~Ub thioester formation” value in the experiment with AtUBC8 [4] is listed as “strong loss of inhibition”.

B2: HsMUB: human version of MUB, aka Ubl3, SEQ ID NO: 2 (protein, listed as Homo sapiens)
chain: MSSNVPADMINLRLILVSGKTKEFLFSPNDSASDIAKHVYDNWPMDWEEEQVSSPNILRLIYQGRFLHGNVTLGALKLPFGKTTVMHLVARETLPEPNSQGQRNREKTGESNCCVIL
For B2, in the experiment with Ube2D3 [1], the “inhibition of Ube2D3~Ub formation” value is on record as “potent inhibition”. The “maximal inhibition of Ube2D3 activation” value in the experiment with Ube2D3 [6] was “up to 70%”. In addition, the “inhibition of AtUBC8~Ub thioester formation” value with AtUBC8 [4] was “potent inhibition”.
